In PMC8960804:

Target: RexT, redox-sensing transcriptional regulator of Nostoc (Anabaena) sp. PCC 7120, tag-free, reduced (Nostoc (Anabaena) sp. PCC 7120)
Experiment: SEC; HiLoad 16/600 Superdex 200 pg, 50 mM HEPES pH 7.5, 100 mM NaCl, 5% v/v glycerol, 2 mM DTT

Work on “RexT, redox-sensing transcriptional regulator of Nostoc (Anabaena) sp. PCC 7120, tag-free, reduced (natural protein)” yielded a stoichiometry N of 2.
